From US20160326240A1 (published 2016)
Numbering of substitutions follows the chain as printed. Values belong to the binder of their own block, whether it stands above or below them.

Legend:
hRGMc-His [1] = target: T1, hRGMc-His (human, UniProt Q6ZVN8 36-400, limits assumed); assay: direct binding ELISA (hRGMc-His)
T1 construct: also called human RGMc; not shown: His tag
T1 sequence (looked up): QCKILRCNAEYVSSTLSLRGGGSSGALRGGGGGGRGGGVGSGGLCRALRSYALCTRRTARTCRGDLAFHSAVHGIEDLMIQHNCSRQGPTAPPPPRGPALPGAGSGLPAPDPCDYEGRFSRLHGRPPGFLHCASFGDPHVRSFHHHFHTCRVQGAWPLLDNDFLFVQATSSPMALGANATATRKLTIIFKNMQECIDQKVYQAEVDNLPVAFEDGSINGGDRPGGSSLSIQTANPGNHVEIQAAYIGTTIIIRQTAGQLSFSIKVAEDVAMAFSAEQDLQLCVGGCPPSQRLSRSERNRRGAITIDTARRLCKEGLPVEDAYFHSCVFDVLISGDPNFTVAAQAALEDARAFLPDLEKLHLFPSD

human RGMc = target: T2, human RGMc (human, UniProt Q6ZVN8 36-400, limits assumed); assay: ELISA
T2 construct: ELISA antigen for the yeast-derived antibodies; a human RGMc-Fc was used for negative selection but the ELISA antigen is not specified
T2 sequence (looked up): T1 sequence (looked up)

hRGMa-His = target: T3, hRGMa-His (human, UniProt Q96B86 48-422, limits assumed); assay: BIAcore
T3 construct: also called human RGMa (BIAcore); not shown: His tag
T3 sequence: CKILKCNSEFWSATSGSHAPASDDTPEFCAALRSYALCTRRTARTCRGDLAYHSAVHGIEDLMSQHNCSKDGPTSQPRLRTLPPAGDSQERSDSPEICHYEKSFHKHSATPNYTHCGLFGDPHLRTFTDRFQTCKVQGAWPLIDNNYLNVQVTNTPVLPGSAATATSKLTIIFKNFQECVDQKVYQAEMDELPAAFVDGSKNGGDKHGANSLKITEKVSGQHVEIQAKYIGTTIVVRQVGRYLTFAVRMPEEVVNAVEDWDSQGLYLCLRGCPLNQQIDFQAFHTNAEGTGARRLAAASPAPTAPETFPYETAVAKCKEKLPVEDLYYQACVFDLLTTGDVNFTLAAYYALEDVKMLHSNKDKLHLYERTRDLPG

Cyno RGMa-His = target: T4, Cyno RGMa-His (cynomolgus monkey, UniProt Q9N0A6 54-431, limits assumed); assay: BIAcore
T4 construct: also called cynomolgus (cyno) monkey RGMa (BIAcore); not shown: His tag
T4 sequence (looked up): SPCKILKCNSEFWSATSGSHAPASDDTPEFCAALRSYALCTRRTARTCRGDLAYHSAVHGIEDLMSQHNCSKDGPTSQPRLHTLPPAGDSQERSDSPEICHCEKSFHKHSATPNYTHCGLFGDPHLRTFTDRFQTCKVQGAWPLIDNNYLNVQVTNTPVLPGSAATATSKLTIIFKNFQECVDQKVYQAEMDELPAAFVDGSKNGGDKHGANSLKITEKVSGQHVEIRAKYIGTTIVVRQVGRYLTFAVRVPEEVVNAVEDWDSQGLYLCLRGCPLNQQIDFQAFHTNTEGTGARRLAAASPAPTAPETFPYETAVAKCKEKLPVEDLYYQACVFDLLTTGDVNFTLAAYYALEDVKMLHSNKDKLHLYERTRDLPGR

hRGMc-His [2] = target: T1, hRGMc-His; assay: BIAcore binding

binding result (hRGMc-His [1]): no binding (tested: 100 nM)
B1: AE12-3 (antibody, V domains shown)
VH: EVQLVESGGGLVQPGRSLRLSCAASGFTFDDYAMHWVRQAPGKGLEWVAVISYDGSNKYYADSVKGRFTISRDNSKNTLYLQMNSLRAEDTAVYYCARERVYSSGKEGYYYGMDVWGQGTMVTVSS
VL: QSGLTQPPSVSAAPGQRVTISCTGSGSNIGAGYGVHWYQQLPATAPKILIYGDYNRPSGVPDRFSGSRSGTSASLTITGLQAEDEADYYCQSYDNSLRGVLFGGGTKLTVL
notes: lambda light chain

binding result (human RGMc): binds
B2: AE12-13 (antibody, V domains shown)
VH: EVQLQESGAGLLKPSETLSLTCAVYGGSFSGYYWSWIRQPPGKGLEWIGEINHSGSTNYNPSLKSRVTISVDTSKNQFSLKLSSVTAADTAVYYCARDDGAGVFDLWGRGTLVTVSS
VL: DIQLTQSPSSLSASVGDGVTITCQASQDISNYLNWYQQKPGKAPKLLIYDASNLETGVPSRFSGSGSGTFFTLTINNLQPEDFATYYCQQSGNTPWTFGQGTKVEINR
notes: kappa light chain

binding result (hRGMc-His [1]): no binding (tested: 100 nM)
B3: AE12-2 (antibody, V domains shown)
VH: EVQLVQSGAEVKKPGASVKVSCKASGYTFTSYDINWVRQATGQGLEWMGWMNPNSGNTGYAQKFQGRVTMTRNTSISTAYMELSSLRSEDTAVYYCARSTSLSVWGQGTLVTVSS
VL: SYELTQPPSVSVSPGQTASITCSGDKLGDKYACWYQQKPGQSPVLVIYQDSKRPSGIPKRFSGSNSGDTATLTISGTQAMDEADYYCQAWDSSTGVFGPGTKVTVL
notes: lambda light chain

binding result (hRGMc-His [1]): no binding (tested: 100 nM)
B4: AE12-5 (antibody, V domains shown)
VH: EVQLVQSGAEVKKPGASVKVSCKVSGHSLSELTIHWVRQAPGKGLEWMGGFDPEDGRGTYAPNFRGRVTMTEDTSTDTAYMELSGLRSEDAAVYYCATLLGEYDSYFDLWGRGTLVTVSS
VL: DVVMTQSPDFQSVTPEDKVTITCRASQSIGSCLHWYQQKPDQSPKLLIKYASQSISGVPSRFSGSGSGTDFTLTINSLEAEDAATYYCHQSSSLPYTFGQGTKLEIK
notes: kappa light chain

Kd (hRGMa-His): 3.8 nM
koff (hRGMa-His): 0.00012 s⁻¹
kon (hRGMa-His): 32000 M⁻¹ s⁻¹
Kd (Cyno RGMa-His): 13.4 nM
koff (Cyno RGMa-His): 0.00063 s⁻¹
kon (Cyno RGMa-His): 47000 M⁻¹ s⁻¹
binding result (hRGMc-His [2]): no binding
B5: AE12-1-H (antibody, V domains shown)
VH: EVQLVQSGAEVKKPGASVKVSCKASGYTFTSHGISWVRQAPGQGLDWMGWISPYSGNTNYAQKLQGRVTMTTDTSTSTAYMELSSLRSEDTAVYYCARVGSGPYYYMDVWGQGTLVTVSS
VL: QSALTQPRSVSGSPGQSVTISCTGTSSSVGDSIYVSWYQQHPGKAPKLMLYDVTKRPSGVPDRFSGSKSGNTASLTISGLQAEDEADYYCHSYAGTDTLFGGGTKVTVL
notes: AE12-1 variant; IgG

Kd (hRGMa-His): 5.9 nM
koff (hRGMa-His): 0.00015 s⁻¹
kon (hRGMa-His): 25000 M⁻¹ s⁻¹
Kd (Cyno RGMa-His): 9.2 nM
koff (Cyno RGMa-His): 0.00099 s⁻¹
kon (Cyno RGMa-His): 110000 M⁻¹ s⁻¹
binding result (hRGMc-His [2]): no binding
B6: AE12-1-V (antibody, V domains shown)
VH: B5 VH
VL: B5 VL with H91V
notes: AE12-1 variant; read as AE12-1-V from the order of the variants; IgG

Kd (hRGMa-His): 6.6 nM
koff (hRGMa-His): 0.00025 s⁻¹
kon (hRGMa-His): 38000 M⁻¹ s⁻¹
Kd (Cyno RGMa-His): 10.1 nM
koff (Cyno RGMa-His): 0.00067 s⁻¹
kon (Cyno RGMa-His): 62000 M⁻¹ s⁻¹
binding result (hRGMc-His [2]): no binding
B7: AE12-1-L (antibody, V domains shown)
VH: B5 VH
VL: B5 VL with H91L
notes: AE12-1 variant; IgG; also called AE-12-L

Kd (hRGMa-His): 4.5 nM
koff (hRGMa-His): 0.00013 s⁻¹
kon (hRGMa-His): 30000 M⁻¹ s⁻¹
Kd (Cyno RGMa-His): 8.9 nM
koff (Cyno RGMa-His): 0.00087 s⁻¹
kon (Cyno RGMa-His): 99000 M⁻¹ s⁻¹
binding result (hRGMc-His [2]): no binding
B8: AE12-1-I (antibody, V domains shown)
VH: B5 VH
VL: B5 VL with H91I
notes: AE12-1 variant; IgG

Kd (hRGMa-His): 8.8 nM
koff (hRGMa-His): 0.0003 s⁻¹
kon (hRGMa-His): 34000 M⁻¹ s⁻¹
Kd (Cyno RGMa-His): 9.3 nM
koff (Cyno RGMa-His): 0.00047 s⁻¹
kon (Cyno RGMa-His): 51000 M⁻¹ s⁻¹
binding result (hRGMc-His [2]): no binding
B9: AE12-1-K (antibody, V domains shown)
VH: B5 VH
VL: B5 VL with H91K
notes: AE12-1 variant; IgG
